Reference: US5858678, “Apoptosis-regulating proteins” (St. Louis University, dated 1999)

B1: Nip2 (19K-interacting protein 2), protein coded by cDNA clone 44, tagged with the GAL4 activation domain (other)
chain: MEGVELKEEWQDEDFPIPLPEDDSIEADILAITGPEDQPGSLEVNGNKVRKKLMAPDISLTLDPSDGSVLSDDLDESGEIDLDGLDTPSENSNEFEWEDDLPKPKTTEVIRKGSITEYTAAEEKEDGRRWRMFRIGEQDHRVDMKAIEPYKKVISHGGYYGDGLNAIVVFAVCFMPESSQPNYRYLMDNLFKYVIGTLELLVAENYMIVYLNGATTRRKMPSLGWLRKCYQQIDRRLRKNLKSLIIVHPSWFIRTLLAVTRPFISSKFSQKIRYVFNLAELAEL
B2: Nip1 (19K-interacting protein 1), protein coded by cDNA clone 22, tagged with the GAL4 activation domain (other)
chain: PQDVHVRICNQEIVKFDLEVKALIQDIRDCSGPLSALTELNTKVKEKFQQLRHRIQDLEQLAKEQDKESEKQLLLQEVENHKKQMLSNQASWRKANLTCKIAIDNLEKAELLQGGDLLRQRKTTKESLAQTSSTITESLMGISRMMAQQVQQSEEAMQSLVTSSRTILDANEEFKSMSGTIQLGRKLITKYNRRELTDKLLIFLALRLFLATVLYIVKKRLFPFL

Columns and labels:
yeast SNF1 protein bait = target: T1, yeast SNF1 protein bait (yeast, UniProt P06782); assay: yeast two-hybrid in strain Y153, X-gal (W = White)
T1 sequence: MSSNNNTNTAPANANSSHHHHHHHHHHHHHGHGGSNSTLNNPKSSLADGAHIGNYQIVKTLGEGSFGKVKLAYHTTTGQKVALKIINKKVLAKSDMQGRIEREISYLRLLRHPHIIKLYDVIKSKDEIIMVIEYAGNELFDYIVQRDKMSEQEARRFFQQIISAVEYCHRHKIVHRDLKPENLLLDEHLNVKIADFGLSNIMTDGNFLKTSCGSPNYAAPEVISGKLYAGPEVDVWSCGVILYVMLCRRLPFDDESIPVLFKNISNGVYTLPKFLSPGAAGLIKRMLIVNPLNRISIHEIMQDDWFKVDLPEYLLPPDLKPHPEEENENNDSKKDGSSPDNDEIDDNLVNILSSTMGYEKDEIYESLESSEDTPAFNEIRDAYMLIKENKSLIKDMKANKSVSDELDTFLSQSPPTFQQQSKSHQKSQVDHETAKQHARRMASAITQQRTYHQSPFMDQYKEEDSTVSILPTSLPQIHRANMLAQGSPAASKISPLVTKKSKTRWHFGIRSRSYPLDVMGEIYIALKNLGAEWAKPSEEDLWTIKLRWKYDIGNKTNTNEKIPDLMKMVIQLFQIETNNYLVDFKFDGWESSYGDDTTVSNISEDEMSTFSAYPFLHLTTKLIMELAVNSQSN
Method: To determine the specificity of the two hybrid interaction, the three clones, 22, 44 and 91, were tested against baits expressing several heterologous proteins (Table 1). Among the various heterologous protein baits used, the adenovirus E3 11.6 kD protein is of particular interest as that protein localizes on the nuclear envelope region and has an internal hydrophobic domain like the E1B 19 kD protein (Scaria et al., 1992).
B = Blue W = White [@]Interactions with all baits except the yeast SNF1 protein were carried out in yeast Strain GGY1::171. Interaction with SNF1 was carried out in yeast strain Y153. *Colonies which appeared on -his, -trp, -leu plates after 6–8 days. Results of X-gal staining are indicated as B, blue; W, white; or ND, not done. The heterologous baits pLAM5 (human lamin) and pAS-SNF1 (yeast SNF1) have been described (Bartel et al., 1993, Durfee et al., 1993). Baits pHIV-1 Rev, pHIV-1 Tat, pHIV-1 Nef and pHTLV-1 Rex expressing the various HIV or HTLV regulating proteins were constructed as described herein and obtained from Cleta D'Sa Eipper and T. Subramanian, St. Louis University Medical Center, St. Louis, MO.

[1] = target: GAL4 DNA binding domain alone (vectors pMA424 or pAS1) (yeast, UniProt P04386); assay: yeast two-hybrid with the empty GAL4 DNA binding domain vectors
[2] = target: human Bax (two-hybrid partner) (human, UniProt Q07812); assay: yeast two-hybrid

Binder | binding result (yeast SNF1 protein bait) | binding result [1] | binding result [2]
B1 | no binding | no binding | –
B2 | – | no binding | no binding
